The source of these data is US11466286B2, “Methods and compositions for conferring and/or enhancing herbicide tolerance using protoporphyrinogen oxidase or variant thereof” (FarmHannong Co., Ltd., priority 2016, dated 2022).

B1: CyPPO13 P316A + V318L: CyPPO13 (SEQ ID NO: 4) PPO variant (protein)
chain: MNPATPEPLNAEVVVIGAGISGLTLAWRLQQGLSARGGSPQAVLLAEASSRVGGCISTQSKDGYRWEEGPNSFTPTPALLNLIAEVGLTDQLVLADAKLPRYIYWEGALLPVPLSPAAALGSRLLSVGGKLRALQGLLGFVPPPPGHEETVRQFFRRQLGSEVAERLVEPFTSGVYAGDPDQLSAVAAFPRVAGLEERYGSLFAGALQALRQRPQPSPAAIQPPPKRGQLGNLRQGLQQLPEALAQKLGDSLRLGWRALQLKRAGELYWVGFETPEGSRWVAARQVVLALPAYEAAALLQELNPPASQLLAEILYAPLAVVALAYPQEALPQPLRGFGHLIPRSQGLRTLGTIWASCLFPERAPQGYHSFLSFLGGATDAALARRRGIPPIPALSPEERAQIAHAELSQVLLTRRAEPVYLGERLWPRAIPQYTLGHRQRIAQVQAHLASQTPGIWVCANYLDGVALGDCVRRAEALAQQLLSQV
modifications: Synthetic CyPPO13
B2: CyPPO13 P316L + V318L: CyPPO13 (SEQ ID NO: 4) PPO variant (protein)
chain: B1 chain with A316L
modifications: Synthetic CyPPO13
B3: CyPPO13 G194R + F373M: CyPPO13 (SEQ ID NO: 4) PPO variant (protein)
chain: B1 chain with G194R, A316P, L318V, F373M
modifications: Synthetic CyPPO13
B4: CyPPO13 G194Q + F373M: CyPPO13 (SEQ ID NO: 4) PPO variant (protein)
chain: B1 chain with G194Q, A316P, L318V, F373M
modifications: Synthetic CyPPO13
B5: CyPPO13 R101A: CyPPO13 (SEQ ID NO: 4) PPO variant (protein)
chain: B1 chain with R101A, A316P, L318V
modifications: Synthetic CyPPO13
B6: CyPPO13 G194M + F373M: CyPPO13 (SEQ ID NO: 4) PPO variant (protein)
chain: B1 chain with G194M, A316P, L318V, F373M
modifications: Synthetic CyPPO13
B7: CyPPO13 I353T: CyPPO13 (SEQ ID NO: 4) PPO variant (protein)
chain: B1 chain with A316P, L318V, I353T
modifications: Synthetic CyPPO13
B8: CyPPO13 V318M: CyPPO13 (SEQ ID NO: 4) PPO variant (protein)
chain: B1 chain with A316P, L318M
modifications: Synthetic CyPPO13
B9: CyPPO13 A177L: CyPPO13 (SEQ ID NO: 4) PPO variant (protein)
chain: B1 chain with A177L, A316P, L318V
modifications: Synthetic CyPPO13
B10: CyPPO13 V175C: CyPPO13 (SEQ ID NO: 4) PPO variant (protein)
chain: B1 chain with V175C, A316P, L318V
modifications: Synthetic CyPPO13
B11: CyPPO13 A177C + F373V: CyPPO13 (SEQ ID NO: 4) PPO variant (protein)
chain: B1 chain with A177C, A316P, L318V, F373V
modifications: Synthetic CyPPO13
B12: CyPPO13 F337V: CyPPO13 (SEQ ID NO: 4) PPO variant (protein)
chain: B1 chain with A316P, L318V, F337V
modifications: Synthetic CyPPO13
B13: CyPPO13 F171A: CyPPO13 (SEQ ID NO: 4) PPO variant (protein)
chain: B1 chain with F171A, A316P, L318V
modifications: Synthetic CyPPO13
B14: CyPPO13 A177C + F373T: CyPPO13 (SEQ ID NO: 4) PPO variant (protein)
chain: B1 chain with A177C, A316P, L318V, F373T
modifications: Synthetic CyPPO13
B15: CyPPO13 G194E + F373M: CyPPO13 (SEQ ID NO: 4) PPO variant (protein)
chain: B1 chain with G194E, A316P, L318V, F373M
modifications: Synthetic CyPPO13
B16: CyPPO13 G194K + F373M: CyPPO13 (SEQ ID NO: 4) PPO variant (protein)
chain: B1 chain with G194K, A316P, L318V, F373M
modifications: Synthetic CyPPO13
B17: CyPPO13 E340T: CyPPO13 (SEQ ID NO: 4) PPO variant, printed E340T, probably L340T (protein)
chain: B1 chain with A316P, L318V, L340T
modifications: Synthetic CyPPO13

Residue numbers refer to the chain shown, from its start. In names and notes the source's numbering stands.

The first experiment has as its system PPO-deficient BT3 E. coli (ΔPPO). In words: Herbicide tolerance of PPO-deficient BT3 E. coli transformed with CyPPO10/CyPPO13 wild type or mutant genes on herbicide-containing LB agar. It counts as cell-based. Also noted: key: the level of herbicide tolerance of the wild type was represented by “−”; if higher, adding “+” to the max “+++++”; if higher, adding “+” to the max “+++++”; if higher, adding “+” to the max “+++++”; if higher, adding “+” to the max “+++++”; if higher, adding “+” to the max “+++++”. The settings on record: BT3 E. coli with CyPPO13 gene; relative to CyPPO13 wild type. From the text: In order to enhance PPO-inhibiting herbicide tolerance of CyPPO10 and CyPPO13, the amino acids interacting with herbicide, as identified in the Example 3, were mutated. After PPO-deficient BT3 E. coli (ΔPPO) was transformed with a PPO gene having such mutation, and then cultured with PPO-inhibiting herbicide, to observe the growth of transformed E. coli, as follows:
The pET303-CyPPO10 or pET303-CyPPO13 plasmids prepared in the Example 4, and plasmids containing each mutant gene, were transformed into BT3 competent cell by a heat shock method, and cultured in a LB agar medium containing ampicillin (100 μg/ml).
For seed culture of BT3 transformants, a single colony thereof was cultured in 3 ml of LB broth (LPSS) containing ampicillin for 12 hours or more, and 50˜100 μl of the cultured solution was further cultured until absorbance (OD600) reaches 0.5 to 1. Then, the obtained cultured solution was diluted with LB broth to adjust absorbance (OD600) to 0.5, and was diluted again 5 times by a factor of one tenth with LB broth.
LB (25 g/L), Bacto agar (12 g/L), ampicillin (100 μg/ml) and various herbicides (0˜200 μM) were mixed, to prepare herbicide-containing media.
Ten microliters of the diluted solution were dropped on the herbicide-containing media, and the media were incubated with light for 16-20 hours at 37° C. The growth level and PPO-inhibiting herbicide tolerance of BT3 transformed with each gene were evaluated.
The herbicide tolerance was evaluated relatively compared to CyPPO wild type, and shown in following Tables 8 to 11 and FIGS. 11 to 29:
In the Tables 8 to 11, the level of herbicide tolerance of the wild type was represented by “−”, and the level of herbicide tolerance was graduated by representing the equal level of tolerance by “−”, and if higher, adding “+” to the max “+++++”.
FIGS. 11 to 19 (wild type and variants of CyPPO10) and FIGS. 20 to 29 (wild type and variants of CyPPO13) show the results of culturing E. coli transformed with CyPPO genes (wild type and variant type), and the concentration described on the top is concentration of herbicide treated. Six columns of each concentration were sequentially diluted 5 times by a factor of one tenth with the E. coli culture solution to the right, and the most left column is the result of E. coli culture solution OD600=0.5.
As for B1, the “Herbicide tolerance level, Acifluorfen (up to 200 μM)” value is “+++”; the “Herbicide tolerance level, Fomesafen (up to 200 μM)” value was “−”; the “Herbicide tolerance level, Pyraclonil (up to 200 μM)” value was “−”; the “Herbicide tolerance level, Pyraflufen-ethyl (up to 200 μM)” value was “+”. The “Herbicide tolerance level, Sulfentrazone (up to 200 μM)” value is on record as “−”.
Take B2: the “Herbicide tolerance level, Acifluorfen (up to 200 μM)” value is on record as “+++”; the “Herbicide tolerance level, Fomesafen (up to 200 μM)” value was “++”; the “Herbicide tolerance level, Pyraclonil (up to 200 μM)” value is listed as “−”; the “Herbicide tolerance level, Pyraflufen-ethyl (up to 200 μM)” value is on record as “+”. Besides, the “Herbicide tolerance level, Sulfentrazone (up to 200 μM)” value is given as “+”.

Another experiment has as its system CyPPO13. The experiment in a line: PPO enzyme activity and IC50 by herbicides, CyPPO13 wild type and variants (MBP-PPO fusion). The following applies: PPO enzyme activity of CyPPO13 protein, wild type = 100. It counts as biochemical, Synechococcus sp. JA-3-3Ab. As to the method: The enzyme activities of PPO protein and PPO protein variants were examined, and inhibition assay by PPO-inhibiting herbicides was conducted. It was confirmed that the PPO protein has low water-solubility, but in case of being expressed as a fusion protein with MBP (maltose binding protein) (MBP-PPO), the PPO protein is able to be stably expressed as water-soluble form. Therefore, the wild type and variant proteins which were expressed in the form of fusion protein with MBP were used in the present test (refer to FIG. 4).
In order to express wild type genes and mutant genes of CyPPO10 and CyPPO13 (refer to Example 1 and Example 4), those genes were introduced to pMAL-c2X vector (refer to FIG. 5) respectively, and then cloned to BL21 (DE3) E. coli (CodonPlus).
The enzyme activity of the purified wild type protein and variant proteins of CyPPO10 and CyPPO13 was measured by the following process.
At first, a substrate of PPO protein, Protoporphyrinogen IX was synthesized. This process was performed in the space where nitrogen gas is streamed. 6 mg of protoporphyrin IX was dissolved in 20% (v/v) EtOH 20 ml, and stirred under dark condition for 30 minutes. The obtained protoporphyrinogen IX solution was put into a 15 ml screw tube in an amount of 800 and flushed with nitrogen gas for 5 minutes. To this, 1 g of sodium amalgam was added and vigorous shaking was performed for 2 minutes. The lid was open to exhaust hydrogen gas in the tube. Thereafter, the lid was closed and incubated for 3 minutes. The […] was filtered using syringe and cellulose membrane filter. To 600 μl of the obtained […], 2M MOPS [3-(N-morpholino)propanesulfonic acid] was added in an amount of approximately 300 thereby adjusting pH to 8.0. To determine the enzyme activity of PPO protein, a reaction mixture was prepared with the following composition (based on 10 ml): 50 mM Tris-Cl (pH 8.0); 50 mM NaCl; 0.04% (v/v) Tween 20; 40 mM glucose (0.072 g); 5 units glucose oxidase (16.6 mg); and 10 units catalase (1 μl).
Two hundred microliters (200 μl) of reaction mixture containing a purified PPO protein were placed in 96 well plates, and preincubated for 30 min at room temperature to reduce the oxygen concentration by the reaction of glucose oxidase-catalase. The mineral oil was layered and then the reaction was initiated by adding the substrate, […], to a final concentration of 50 μM. The reaction proceeded at room temperature for 30 min and the fluorescence of protoporphyrin IX was measured using Microplate reader (Sense, Hidex) (excitation: 405 nm; emission: 633 nm). To calculate the PPO enzyme activity, protoporphyrinogen IX solution was kept open in the air to oxidize the solution (overnight). To this, 2.7N HCl was added, and the absorbance at 408 nm was measured. A standard curve was generated using standard protoporphyrin IX, and the PPO activity was measured by calibration of protoporphyrin IX using the standard curve of protoporphyrin IX.
The final concentration of each herbicide was as follows: […]
Consider B3, for which the “Activity (%)” value was 35%.
Still for that read-out and setting: next, B4: 37%; B5: 87%.
In the case of B6, the “Activity (%)” value was determined as 43%.
The same measure, in the same setting: for B7 the value was 62%; for B8, 81%; for B9, 97%.
For B10, the “Activity (%)” value is 94%.
For the molecule B11, the “Activity (%)” value amounted to 56%.
With B12, the “Activity (%)” value is listed as 88%.
The same measure, in the same setting: for B13 the value was 70%; for B14, 80%; for B15, 32%.
The same measure, in the same setting: for B16 the value was 41%; for B17, 83%.
